Experimental findings from patent US20130177960 are described below.

Common to all, as to experiment: cell_activity
One data set has as its system SBS35393 ZFN (synthetic). Conditions: pair with 35361.
For the next data set, the system named is SBS30872 ZFN (synthetic). Particulars: pair with 30873, AAV8 in mouse liver, Cel-I; up to 17% over both pairs.
The subject of the next data set is SBS30873 ZFN (synthetic). Particulars: pair with 30872, AAV8 in mouse liver, Cel-I; up to 17% over both pairs.
A further data set deals with SBS35370 ZFN (synthetic). Particulars: pair with 35396.
A further data set relates to SBS30724 ZFN (synthetic). Conditions: pair with 30725, AAV in mouse liver, Cel-I.
The test system of a further data set is SBS34077 ZFN (synthetic). Particulars: pair with 33115, D17 cells.
In another data set the test system is SBS36806 ZFN (synthetic). Particulars: pair with 35396, RF/6A.
For a further data set, the system named is SBS36808 ZFN (synthetic). Particulars: pair with 35396, RF/6A.
In the next data set the test system is SBS36813 ZFN (synthetic). Particulars: pair with 35396, RF/6A.
Another data set concerns SBS36819 ZFN (synthetic). Conditions: pair with 35396, RF/6A.
Another data set deals with SBS36820 ZFN (synthetic). Conditions: pair with 35396, RF/6A.
The subject of the next data set is SBS33115 ZFN (synthetic). Particulars: pair with 34077, D17 cells.
The next data set has as its system SBS30725 ZFN (synthetic). Particulars: pair with 30724, AAV in mouse liver, Cel-I.

“CCTATCCATTGCACTATGCTTTATTTAA (double strand) [human locus 2 left site (conserved in rhesus)]”: the activity (% mutated targets) with SBS35393 ZFN (synthetic) was found to be 18.

“CTTGGCTGTGTAGGAGGGGAGTAGCAGT (double strand) [30872 site]”: the activity in the data set on SBS30872 ZFN (synthetic) was less than 17 % indels.

“TTCCTAAGTTGGCAGTGGCATGCTTAAT (double strand) [30873 site]”: the activity with SBS30873 ZFN (synthetic) was less than 17 % indels.

“TTTGGGATAGTTATGAATTCAATCTTCA (double strand) [human locus 2 partner site]” returned an activity (% mutated targets) in the data set with SBS35370 ZFN (synthetic) of 22.

In the case of “CTGAAGGTGGCAATGGTTCCTCTCTGCT (double strand) [30724 site]”, the activity in the data set on SBS30724 ZFN (synthetic) was less than 21 % indels.

“AAGTCATGTGGAGAGAAACACAAAGAGT (double strand) [34077 site]” yielded an activity with SBS34077 ZFN (synthetic) of 30 % indels.

“TTAGGGACAGTTATGAATTCAATCTTCA (double strand) [rhesus partner site]”: the activity was 20.5 % indels with SBS36806 ZFN (synthetic); 26 % indels in the data set with SBS36808 ZFN (synthetic); 21 % indels in the data set with SBS36813 ZFN (synthetic); 30 % indels with SBS36819 ZFN (synthetic); 23 % indels with SBS36820 ZFN (synthetic).

As to “AGTATTCGTTTGCTCCAAAATATTTGCC (double strand) [33115 site]”, the activity in the data set with SBS33115 ZFN (synthetic) is 30 % indels.

As for “TTTCCTGTAACGATCGGGAACTGGCATC (double strand) [30725 site]”, the activity in the data set with SBS30725 ZFN (synthetic) was less than 21 % indels.
